Assay results reported in patent publication US20220040297A1 (Chugai, published 2022).

Molecular target: T1, CD3ε homodimer protein (human, UniProt P07766 23-126, limits assumed)
T1 construct: also called human CD3ε homodimer protein; CD3e homodimer
Assay: SPR (Biacore T200, 25°C); CD3ε homodimer immobilized on CM4, one-arm antibody as analyte

T1 sequence (P07766 23-126 limits assumed): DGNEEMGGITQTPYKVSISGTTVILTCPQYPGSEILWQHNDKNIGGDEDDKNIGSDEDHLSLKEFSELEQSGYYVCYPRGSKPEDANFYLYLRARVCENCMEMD

Kd [nM]	Binder
38	NNS6f27 (antibody, one-arm antibody) heavy: QVQLVESGGGLVQPGRSLRLSCAASGFTFSNAWMHWVRQAPGKGLEWVAQIKDKSNNYATYYAESVKGRFTISRDDSKNSIYLQMNSLKTEDTAVYYCRYVHYAAVWGSVWYYGVDAWGQGTTVTVSSASTKGPSVFPLAPSSKSTSGGTAALGCLVKDYFPEPVTVSWNSGALTSGVHTFPAVLQSSGLYSLSSVVTVPSSSLGTQTYICNVNHKPSNTKVDKKVEPKSCDKTHTCPPCPAPEAAGGPSVFLFPPKPKDTLMISRTPEVTCVVVDVSHEDPEVKFNWYVDGVEVHNAKTKPREEQYASTYRVVSVLTVLHQDWLNGKEYKCKVSNKALPAPIEKTISKAKGQPREPQVYTLPPSRCELTKNQVSLSCAVKGFYPSDIAVEWESNGQPENNYKTTPPVLDSDGSFFLVSKLTVDKSRWQQGNVFSCSVMHEALHNHYTQKSLSLSPDYKDDDDK EPKSSDKTHTCPPCPAPELLGGPSVFLFPPKPKDTLMISRTPEVTCVVVDVSHEDPEVKFNWYVDGVEVHNAKTKPREEQYNSTYRVVSVLTVLHQDWLNGKEYKCKVSNKALPAPIEKTISKAKGQPREPQVCTLPPSRDELTKNQVSLWCLVKGFYPSDIAVEWESNGQPENNYKTTPPVLDSDGSFFLYSKLTVDKSRWQQGNVFSCSVMHEALHNRYTQKSLSLSP light: DIVMTQSPLSLPVTPGEPASISCRSSQSLVHSNRNTYLHWYQQKPGQAPRLLIYKVSNRFSGVPDRFSGSGSGTDFTLKISRVEAEDVGVYYCGQGTQVPYTFGQGTKLEIKRTVAAPSVFIFPPSDEQLKSGTASVVCLLNNFYPREAKVQWKVDNALQSGNSQESVTEQDSKDSTYSLSSTLTLSKADYEKHKVYACEVTHQGLSSPVTKSFNRGEC
90	NNS6f29 (antibody, one-arm antibody) heavy: QVQLVESGGGLVQPGRSLRLSCAASGFTFSNAWMHWVRQAPGKGLEWVAQIKDKSNNYATYYAESVKGRFTISRDDSKNSIYLQMNSLKTEDTAVYYCRYVHYAAIYYPTNYYGVDAWGQGTTVTVSSASTKGPSVFPLAPSSKSTSGGTAALGCLVKDYFPEPVTVSWNSGALTSGVHTFPAVLQSSGLYSLSSVVTVPSSSLGTQTYICNVNHKPSNTKVDKKVEPKSCDKTHTCPPCPAPEAAGGPSVFLFPPKPKDTLMISRTPEVTCVVVDVSHEDPEVKFNWYVDGVEVHNAKTKPREEQYASTYRVVSVLTVLHQDWLNGKEYKCKVSNKALPAPIEKTISKAKGQPREPQVYTLPPSRCELTKNQVSLSCAVKGFYPSDIAVEWESNGQPENNYKTTPPVLDSDGSFFLVSKLTVDKSRWQQGNVFSCSVMHEALHNHYTQKSLSLSPDYKDDDDK EPKSSDKTHTCPPCPAPELLGGPSVFLFPPKPKDTLMISRTPEVTCVVVDVSHEDPEVKFNWYVDGVEVHNAKTKPREEQYNSTYRVVSVLTVLHQDWLNGKEYKCKVSNKALPAPIEKTISKAKGQPREPQVCTLPPSRDELTKNQVSLWCLVKGFYPSDIAVEWESNGQPENNYKTTPPVLDSDGSFFLYSKLTVDKSRWQQGNVFSCSVMHEALHNRYTQKSLSLSP light: DIVMTQSPLSLPVTPGEPASISCRSSQSLVHSNRNTYLHWYQQKPGQAPRLLIYKVSNRFSGVPDRFSGSGSGTDFTLKISRVEAEDVGVYYCGQGTQVPYTFGQGTKLEIKRTVAAPSVFIFPPSDEQLKSGTASVVCLLNNFYPREAKVQWKVDNALQSGNSQESVTEQDSKDSTYSLSSTLTLSKADYEKHKVYACEVTHQGLSSPVTKSFNRGEC
